Assay results taken from paper PMC3936744 (Nucleic Acids Research, 2013).
Like-named read-outs stand apart in the source and are kept apart here.

T1: Dpo4 (Sulfolobus solfataricus P2 DNA polymerase IV) (Saccharolobus solfataricus, UniProt Q97W02)
T1 sequence (Q97W02 1-352): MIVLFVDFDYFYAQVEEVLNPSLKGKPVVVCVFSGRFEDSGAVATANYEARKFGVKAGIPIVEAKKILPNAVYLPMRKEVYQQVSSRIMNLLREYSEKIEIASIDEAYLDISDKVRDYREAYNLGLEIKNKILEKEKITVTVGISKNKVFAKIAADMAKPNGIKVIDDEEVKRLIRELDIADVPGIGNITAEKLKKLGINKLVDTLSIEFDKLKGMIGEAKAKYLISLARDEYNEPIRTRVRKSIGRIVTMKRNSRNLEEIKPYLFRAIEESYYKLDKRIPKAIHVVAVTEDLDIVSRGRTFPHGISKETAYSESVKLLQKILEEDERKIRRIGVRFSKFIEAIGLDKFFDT

T2: Dpo4 (P2 DNA polymerase IV), wild type, Cy5-labeled (Sulfolobus solfataricus P2, UniProt Q97W02 1-352)
T2 sequence: T1 sequence (Q97W02 1-352)

B1: 8Cy3 primer-template (dsDNA)
DNA 1: GATGAAAATGAAG
DNA 2: CTCATAATAGCTATCCTTCATTTTCATC
modifications: amino-C6-dT in template
B2: 7Cy3 primer-template (dsDNA)
DNA 1: GATGAAAATGAA
DNA 2: CTCATAATAGCTATCCTTCATTTTCATC
modifications: amino-C6-dT in template
B3: 9Cy3 primer-template (dsDNA)
DNA 1: GATGAAAATGAAGG
DNA 2: CTCATAATAGCTATCCTTCATTTTCATC
modifications: amino-C6-dT in template
B4: 10Cy3 primer-template (dsDNA)
DNA 1: GATGAAAATGAAGGA
DNA 2: CTCATAATAGCTATCCTTCATTTTCATC
modifications: amino-C6-dT in template
B5: 11Cy3 primer-template (dsDNA)
DNA 1: GATGAAAATGAAGGAT
DNA 2: CTCATAATAGCTATCCTTCATTTTCATC
modifications: amino-C6-dT in template
B6: 12Cy3 primer-template (dsDNA)
DNA 1: GATGAAAATGAAGGATA
DNA 2: CTCATAATAGCTATCCTTCATTTTCATC
modifications: amino-C6-dT in template

Legend:
[1] = biological target: T1, Dpo4 (Sulfolobus solfataricus P2 DNA polymerase IV); test: smFRET histogram shift and dissociation rate of the Dpo4-DNA complex; format: binding; conditions: 1 mM; incorrect nucleotide; 8Cy3 primer-template; Ca2+, pH 7.5, 21 °C
[2] = biological target: T2, Dpo4 (P2 DNA polymerase IV), wild type, …; test: smFRET
[3] = biological target: T2, Dpo4 (P2 DNA polymerase IV), wild type, …; test: smFRET; remark: listed apart in the source
[4] = biological target: T2, Dpo4 (P2 DNA polymerase IV), wild type, …; test: smFRET; remark: listed apart in the source

Row | Molecule | binding result [3] | also measured
1 | Nc1ccn([C@H]2C[C@H](O)[C@@H](COP(=O)(O)OP(=O)(O)OP(=O)(O)O)O2)c(=O)n1 [dCTP] | – | smFRET histogram shift and dissociation rate of the Dpo4-DNA complex [1]: both dCTP and dTTP induced a low FRET shift identical to that observed
2 | B1 | – | Kd [2]: 30 ± 10 nM
3 | B2 | binds | –
4 | B3 | – | binding result [4]: binds
5 | B4 | binds | –
6 | B5 | binds | –
7 | B6 | binds | –
